From article PMC6475807 come the findings set out here.

What is called stoichiometry N is a count of units in the complex or per binding partner.

For this experiment, the target named is ^cchexAFG3L2 (human) (UniProt Q9Y4W6). In words: SEC.

Consider “^cchexAFG3L2 (from UniProt Q9Y4W6 272-797) (enzyme)”, for which the stoichiometry N turned out to be 6.
